According to paper PMC5311907, “ClickIn: a flexible protocol for quantifying mitochondrial uptake of nucleobase derivatives” (Interface Focus, 2017):

Test system: isolated rat liver mitochondria
Assay: ClickIn/MPP uptake experiment in isolated rat liver mitochondria (MALDI-TOF quantification of clicked, processed PNA 8)
Format: in vitro ADME
Method: Rat liver mitochondria were prepared by differential centrifugation as previously described, and diluted to a 20 mg protein ml^−1 concentration in STE buffer (250 mM sucrose, 5 mM Tris, 1 mM EGTA, pH 7.4) and stored for a maximum of 3 h on ice. Peptide–PNA 6 was dissolved at the indicated concentrations in 100 µl KCl buffer (120 mM KCl, 10 mM HEPES, 1 mM EGTA, 1 mM ADP, 1 mM MgCl2, 1 mM KPi, 0.05% BSA, pH 7.4) supplemented with 10 mM potassium succinate, 4 µg ml^−1 rotenone and 10 µM MitoOct. Where indicated carbonyl cyanide-4-(trifluoromethoxy)phenylhydrazone (FCCP, 500 nM) was added to the buffer. The buffer was warmed for 5 min at 37°C after which the reaction was initiated by addition of 5 µl mitochondria suspension (100 µg protein). The mitochondria were incubated for 1 h at 37°C, after which the reaction was stopped by the addition of 3-phenyl-1,2,4,5-tetrazine (PhTet, 50 µM). The mitochondria were pelleted by centrifugation at 16 000g for 1 min, and supernatant was removed. Next 100 µl 20% acetonitrile solution with 0.1% formic acid, 50 µM PhTet and 0.1 µM internal standard 5 was added to the pellet. The pellet was suspended by three cycles of freezing in solid CO2 (5 min) and sonication in a Grant XB2 ultrasonic bath. The obtained solution was centrifuged at 16 000g for 10 min. The sample was spotted onto an MALDI-plate using the bottom-layer method. Matrix (0.75 µl, 50% acetonitrile, 5 mg ml^−1 α-cyano-4-hydroxycinnamic acid, 10 mM dibasic ammonium citrate, 0.1% TFA) was spotted on the plate and 0.75 µl sample was mixed in. The spot was left to dry at room temperature, after which another layer of 0.75 µl of matrix was added. In total, 20 spectra with 10 shots each were collected per spot, using a minimum intensity of 1000 and a maximum of 10 000 as selection criterion, averages were taken of three spots per experiment. All experiments were performed in triplicate using different mitochondrial preparations and are presented as averages ±s.e.m.
Isolated rat liver mitochondria were incubated with various concentrations of peptide (0.1–10 µM) in import buffer, in the presence of MitoOct, for 1 h at 37°C. As previously described, the reaction was stopped by addition of PhTET and centrifugation. The pellet was extracted (20% acetonitrile, 0.1% formic acid, 50 µM PhTet, 0.1 μM 5) and analysed by MALDI-TOF (figure 3 and electronic supplementary material, S1). […] This is consistent with FCCP not only inhibiting the ClickIn reaction, but also inhibiting the processing of COX8-PNA-click by stopping import of 6. The absence of signal in the presence of FCCP is striking (figure 3 and electronic supplementary material, S1), and enables the qualitative observation of PNA uptake in isolated mitochondria. […] It is interesting to note that, even though the MPP is known to cleave after the 25th residue of the COX8 pre-sequence, we see no evidence of the four amino acids, IHSL, predicted to remain at the N-terminal of our cleaved product. Our previous unpublished results have shown a very minor amount of the PNA product still carrying leucine at the N-terminal but not any of the remaining amino acids. It is likely that these residues are removed by a protease residing in the mitochondrial matrix.

## COX8-Cys-Ac-GTCA-Lys(N3)-NH2 [compound 6]
As the uptake experiment, plus FCCP 500 nM, all added concentrations of 6 (0.1–10 µM), 1 h at 37°C, MALDI-TOF
  formation of product 8 in the presence of FCCP (uncoupled membrane potential): no product 8 could be observed
Isolated rat liver mitochondria (100 µg protein) in 100 µl KCl buffer pH 7.4, 10 mM succinate, 4 µg/ml rotenone, 10 µM MitoOct, 0.1–10 µM 6, 1 h at 37°C, stopped with 50 µM PhTet, pellet extract, MALDI-TOF with 0.1 µM internal standard 5, triplicate, different mitochondrial preparations
  formation of clicked PNA (product 8) as measure of mitochondrial matrix import: Significant amounts of clicked PNA were observed in all samples
Isolated rat liver mitochondria, 10 µM MitoOct, 1 h at 37°C, MALDI-TOF with internal standard 5, figure 3c, averages ± s.e.m., triplicate
  concentration dependence of the ClickIn/MPP reaction (quantified 8): typical dose–response curve for concentrations of 6 up to 5 µM
Isolated rat liver mitochondria, 10 µM MitoOct, 1 h at 37°C, MALDI-TOF, without FCCP, not observed in the presence of FCCP
  cleaved but not clicked 6 seen in mass spectra: small amounts of cleaved but not clicked 6
Isolated rat liver mitochondria, concentrations of 6 higher than 5 µM, inferred from the dose–response curve
  toxic effect on the mitochondria: might have a toxic effect on the mitochondria
